# Laboratory results: patent publication US20070154994A1 (NATIONAL RESEARCH COUNCIL OF CANADA, published 2007)
# Where no end group is shown, it is not given here.
# B1: TβRIIED-K5 fusion protein (receptor)
# chain: TIPPEQKLISEEDLLHVQKSVNNDMIVTDNNGAVKFPQLCKFCDVRFSTCDNQKSCMSNCSITSICEKPQEVCVAVWRKNDENITLETVCHDPKLPYHDFILEDAASPKCIMKEKKKPGETFFMCSCSSDECNDNIIFSEEYNTSNPDGGRGGGGSGGGKVSALKEKVSALKEKVSALKEKVSALKEKVSALKEGGHHHHHH
# notes: Secreted from HEK 293SF cells; The monomer was separated from aggregates with a Centriprep 30; also called K5 coiled-tagged TβRIIED; monomeric TβRIIED-K5
# B2: TβRIIED-E5 dimerized by K5ox (two TβRIIED-E5 to one K5ox) (receptor)
# chain: TIPPEQKLISEEDLLHVQKSVNNDMIVTDNNGAVKFPQLCKFCDVRFSTCDNQKSCMSNCSITSICEKPQEVCVAVWRKNDENITLETVCHDPKLPYHDFILEDAASPKCIMKEKKKPGETFFMCSCSSDECNDNIIFSEEYNTSNPDGGRGGGGSGGGEVSALEKEVSALEKEVSALEKEVSALEKEVSALEKGGHHHHHH
# peptide: CGGKVSALKEKVSALKEKVSALKEKVSALKEKVSALKE
# modifications: N-terminal Cys oxidized, joining the two chains as a K5 covalent dimer
# B3: TβRIIED-K5/TβRIIED-E5 coiled-coil induced dimer (receptor)
# chain 1: B1 chain
# chain 2: B2 chain
# notes: Non-covalent dimer made by preincubating equimolar TβRIIED-K5 and TβRIIED-E5; also called TβRIIED-E5/TβRIIED-K5 dimer
# B4: K5ox (peptide)
# peptide: B2 peptide
# modifications: also: covalent homodimer via oxidized N-terminal Cys
# notes: Synthetic peptide oxidized in ammonium bicarbonate at pH 8.0; also called oxidized CGGK5 coil; K5 covalent dimer
# B5: TβRIIED-E5 fusion protein (receptor)
# chain: B2 chain
# notes: Secreted from HEK 293SF cells; also called TβRII ED-E5 coil; E5 coiled-tagged TβRIIED
# B6: MP-TβRIIIED-K5 fusion protein (receptor)
# chain: GPEQKLISEEDLRQLRNPSGFQGQLDGNATFNMELYNTDLFLVPSPGVFSVAENEHVYVEVSVTKADQDLGFAIQTCFLSPYSNPDRMSDYTIIENICPKDDSVKFYSSKRVHFPIPHAEVDKKRFSFLFKSVFNTSLLFLHCELTLCSRKKGSLKLPRCVTPDDACTSLDATMIWTMMQNKKTFTKPLAVVLQVDYKENVPSTKDSSPIPPPPPQIFHGGRGGGGSGGGKVSALKEKVSALKEKVSALKEKVSALKEKVSALKEGGHHHHHH
# notes: Secreted from HEK 293SF cells; also called Cterm-TβRIIIED-K5coil; K5 tagged TβRIIIED
# Assays:
# Recombinant human TGF-β1 [1] = biological target: T1, Recombinant human TGF-β1 (human, UniProt P01137 279-390); test: SPR, TGF-β1 coupled, two-to-one stoichiometry model, Kd 1 (first site)
# T1 construct: It was amine coupled to the CM5 chip in SPR and used at 10 pM in the luciferase assay; also called transforming growth factor-β1
# T1 sequence (P01137 279-390 limits assumed): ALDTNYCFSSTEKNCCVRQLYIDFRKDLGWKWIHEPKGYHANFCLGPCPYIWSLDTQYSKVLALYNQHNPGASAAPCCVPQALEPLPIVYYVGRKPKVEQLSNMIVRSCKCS
# Experimental: (§1) As described in Example 3, TGF-β1 was coupled to the biosensor surface (approximately 250 RUs) by a standard amino coupling procedure. […] After data preparation by the ‘double referencing’ method, the set of sensorgrams was globally fit using a kinetic model depicting the presence of two independent TβRIIED binding sites on the TGF-β1 molecule (two-to-one stoichiometry model).
# (§2) Regeneration of the sensor chip for subsequent injections was accomplished by two pulses of HCl (20 mM, 120 seconds), followed by an EXTRACLEAN procedure performed according to the BIACORE manual.
# [2] = biological target: B5; test: SPR (BIACORE), TβRIIED-E5 captured on the coupled anti hTGF-βRII antibody, TβRIIED-K5 injected at 50 nM
# Experimental: (§3) A solution of 0.1 M ethanolamine-HCl (pH 8.5, 35 μL) was then used to block the remaining activated carboxyl groups.
# (§4) Three studies were then performed at a flow rate of 5 μL/min: [0183] […] [0184] […] [0185]
# Recombinant human TGF-β1 [3] = biological target: T1, Recombinant human TGF-β1; test: SPR, TGF-β1 coupled, two-to-one stoichiometry model, kass 2 (second site)
# Experimental: as §1, §2
# Recombinant human TGF-β1 [4] = biological target: T1, Recombinant human TGF-β1; test: SPR, TGF-β1 coupled, two-to-one stoichiometry model, kdiss 1 (first site)
# Experimental: as §1, §2
# Recombinant human TGF-β1 [5] = biological target: T1, Recombinant human TGF-β1; test: SPR, TGF-β1 coupled, two-to-one stoichiometry model, kass 1 (first site)
# Experimental: as §1, §2
# Recombinant human TGF-β1 [6] = biological target: T1, Recombinant human TGF-β1; test: SPR, TGF-β1 coupled, two-to-one stoichiometry model, kdiss 2 (second site)
# Experimental: as §1, §2
# Recombinant human TGF-β1 [7] = biological target: T1, Recombinant human TGF-β1; test: SPR, TGF-β1 coupled, two-to-one stoichiometry model, Kd 2 (second site)
# Experimental: as §1, §2
# Recombinant human TGF-β1 [8] = biological target: T1, Recombinant human TGF-β1; test: cell-based or functional assay
# Recombinant human TGF-β1 [9] = biological target: T1, Recombinant human TGF-β1; test: SPR, TGF-β1 coupled, rearrangement model (best fit), Kdiss#1
# Recombinant human TGF-β1 [10] = biological target: T1, Recombinant human TGF-β1; test: SPR, TGF-β1 coupled, simple one-to-one model (poor fit), Kdapp
# Experimental: as §2
# Recombinant human TGF-β1 [11] = biological target: T1, Recombinant human TGF-β1; test: SPR, TGF-β1 coupled, avidity model, Kd 1
# Experimental: as §2
# Recombinant human TGF-β1 [12] = biological target: T1, Recombinant human TGF-β1; test: SPR, TGF-β1 coupled, avidity model, kass#1
# Experimental: (§5) Since TGF-β1 is a covalent dimer, and since TβRIIED was artificially dimerized through coiled-coil interactions, two scenarios of binding were evaluated. […] This corresponds to an overall one to one (dimer-to-dimer) stoichiometry model with a rearrangement step after the initial binding (rearrangement model).
# Recombinant human TGF-β1 [13] = biological target: T1, Recombinant human TGF-β1; test: SPR, TGF-β1 coupled, avidity model, Kdiss#1
# Experimental: as §5
# Recombinant human TGF-β1 [14] = biological target: T1, Recombinant human TGF-β1; test: SPR, TGF-β1 coupled, rearrangement model, Kd 1 (initial binding step)
# Experimental: as §5
# Recombinant human TGF-β1 [15] = biological target: T1, Recombinant human TGF-β1; test: SPR, TGF-β1 coupled, rearrangement model (best fit), Kdapp
# Recombinant human TGF-β1 [16] = biological target: T1, Recombinant human TGF-β1; test: SPR, TGF-β1 coupled, simple one-to-one model (poor fit), Kd 1
# Experimental: as §2
# Recombinant human TGF-β1 [17] = biological target: T1, Recombinant human TGF-β1; test: SPR, TGF-β1 coupled, simple one-to-one model (poor fit), kass#1
# Recombinant human TGF-β1 [18] = biological target: T1, Recombinant human TGF-β1; test: SPR, TGF-β1 coupled, simple one-to-one model (poor fit), Kdiss#1
# Recombinant human TGF-β1 [19] = biological target: T1, Recombinant human TGF-β1; test: SPR, TGF-β1 coupled, rearrangement model (best fit), kass#1
# Experimental: as §5
# Recombinant human TGF-β1 [20] = biological target: T1, Recombinant human TGF-β1; test: SPR, TGF-β1 coupled, avidity model, second step; unit from footnote **
# Experimental: as §2
# Recombinant human TGF-β1 [21] = biological target: T1, Recombinant human TGF-β1; test: SPR, TGF-β1 coupled, rearrangement model, rearrangement step
# Experimental: as §5
# [22] = biological target: B5; test: inferred from SPR of TβRIIED-E5 (300 nM) preincubated with K5ox over coupled TGF-β1
# Description: (§6) In another embodiment of the invention, an alternative approach to achieving coiled-coil induced dimerization of TβRIIED is provided. In this embodiment, a dimeric coil is used to act as an adaptor to bridge two proteins.
# (§7) Regeneration of the sensor chip was done as described above.
# Recombinant human TGF-β1 [23] = biological target: T1, Recombinant human TGF-β1; test: SPR (BIACORE), TGF-β1 coupled, 300 nM TβRIIED-E5 alone; the pair is assigned by the fast wash-off that paragraph 133 gives for sensorgrams 1 and 4
# Description: as §6, §7
# Recombinant human TGF-β1 [24] = biological target: T1, Recombinant human TGF-β1; test: SPR, TGF-β1 coupled, simple model, Kdiss#1
# Experimental: (§8) In FIG. 6A, different concentrations of MP-TβRIIIED-K5 monomeric fusion protein ranging from 62.5 nM to 500 nM were injected over 75 RUs of coupled TGF-β1 and over a control surface. The points are the resonance units obtained after data preparation as described in Example 2, and the solid lines represent the fit when integrating all the curves simultaneously using a rearrangement model. FIGS. 6B-6C show residuals from the fit of the interaction data using a rearrangement model (FIG. 6B) and a simple one-to-one model (FIG. 6C).
# (§9) Surface plasmon resonance studies were performed using a BIACORE™ biosensor (see for example U.S. Pat. No. 6,165,335 and related patents) using a running buffer composed of HBS; 20 mM Hepes (pH 7.4),150 mM NaCl, 3.4 mM EDTA, and 0.05% Tween20 for diluting all the test analytes.
# Recombinant human TGF-β1 [25] = biological target: T1, Recombinant human TGF-β1; test: SPR, TGF-β1 coupled, rearrangement model, Kdiss#1
# Experimental: as §8
# (§10) Kinetic experiments were carried out at 25° C. with a flow rate of 100 μL/min. Different concentrations of MP-TβRIIIED-K5 (0 to 500 nM), or MP-TβRIIIED-mixed with equimolar concentrations of […] (0 to 150 nM), were randomly injected in duplicate over a TGF-β1 surface as well as over a control surface (150 μL injections), following which the analyte solution was replaced by buffer for at least 210 seconds. Regeneration of the sensor chip for subsequent injections was accomplished by two pulses of HCl (20 mM, 120 seconds), followed by an EXTRACLEAN procedure performed according to the BIACORE manual.
# Recombinant human TGF-β1 [26] = biological target: T1, Recombinant human TGF-β1; test: SPR, TGF-β1 coupled, rearrangement model, kass#1
# Experimental: as §8, §9
# Recombinant human TGF-β1 [27] = biological target: T1, Recombinant human TGF-β1; test: SPR, TGF-β1 coupled, rearrangement model, rearrangement step; remark: listed apart in the source
# Experimental: as §8, §9
# Recombinant human TGF-β1 [28] = biological target: T1, Recombinant human TGF-β1; test: SPR, TGF-β1 coupled, simple model, kass#1
# Experimental: as §8, §10
# Recombinant human TGF-β1 [29] = biological target: T1, Recombinant human TGF-β1; test: SPR, TGF-β1 coupled, simple model, Kdapp
# Experimental: as §8, §9
# Recombinant human TGF-β1 [30] = biological target: T1, Recombinant human TGF-β1; test: SPR, TGF-β1 coupled, rearrangement model, Kdapp
# Experimental: as §8, §10
# [31] = biological target: T2, Recombinant human TβRIIED, untagged (human, UniProt P37173 23-166); test: SPR (BIACORE), untagged hTβRII ED (about 120 RU left) captured on the coupled anti hTGF-βRII antibody, MP-TβRIIIED-K5 injected
# T2 construct: extracellular domain; Gift from Dr. Hinck; also called untagged hTβRII ED; untagged TβRIIED
# T2 sequence (P37173 23-166): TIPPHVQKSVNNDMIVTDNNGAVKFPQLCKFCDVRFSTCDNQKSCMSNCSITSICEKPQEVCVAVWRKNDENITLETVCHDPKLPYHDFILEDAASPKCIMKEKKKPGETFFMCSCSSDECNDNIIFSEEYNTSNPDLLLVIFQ
# Experimental: This study is also described in Example 2.
# as §3, §4
# Recombinant human TGF-β1 [32] = biological target: T1, Recombinant human TGF-β1; test: SPR, TGF-β1 coupled, rearrangement model, Kd 1 (initial binding step); remark: listed apart in the source
# Experimental: as §8, §9
# Recombinant human TGF-β1 [33] = biological target: T1, Recombinant human TGF-β1; test: SPR, TGF-β1 coupled, simple model, Kd 1; simple model, Kd 1
# Experimental: as §8, §9
binder,measurement,setting,value
B1,Kd,Recombinant human TGF-β1 [1],90 nM
same,binding result,[2],binds
same,kon,Recombinant human TGF-β1 [3],1900 M⁻¹ s⁻¹
same,koff,Recombinant human TGF-β1 [4],0.033 s⁻¹
same,kon,Recombinant human TGF-β1 [5],365000 M⁻¹ s⁻¹
same,koff,Recombinant human TGF-β1 [6],0.0026 s⁻¹
same,Kd,Recombinant human TGF-β1 [7],1250 nM
B2,"IC50 for inhibition of signaling (luciferase, MLEC cells)",Recombinant human TGF-β1 [8],~30 nM
same,"IC50 of TβRIIED-E5 in the presence of 150 nM K5ox (luciferase, MLEC cells)",Recombinant human TGF-β1 [8],53 nM
B3,koff,Recombinant human TGF-β1 [9],0.11 s⁻¹
same,Kd,Recombinant human TGF-β1 [10],0.33 nM
same,Kd,Recombinant human TGF-β1 [11],330 nM
same,kon,Recombinant human TGF-β1 [12],213000 M⁻¹ s⁻¹
same,koff,Recombinant human TGF-β1 [13],0.071 s⁻¹
same,Kd,Recombinant human TGF-β1 [14],92 nM
same,Kd,Recombinant human TGF-β1 [15],1.5 nM
same,Kd,Recombinant human TGF-β1 [16],0.33 nM
same,kon,Recombinant human TGF-β1 [17],640000 M⁻¹ s⁻¹
same,koff,Recombinant human TGF-β1 [18],0.00021 s⁻¹
same,kon,Recombinant human TGF-β1 [19],1.19e+06 M⁻¹ s⁻¹
same,Kd 2,Recombinant human TGF-β1 [20],370 nM
same,Kd 2 (no unit),Recombinant human TGF-β1 [21],0.0166 no unit
B4,binding result,[22],binds
B5,binding result,Recombinant human TGF-β1 [23],binds
B6,koff,Recombinant human TGF-β1 [24],0.0025 s⁻¹
same,koff,Recombinant human TGF-β1 [25],0.044 s⁻¹
same,kon,Recombinant human TGF-β1 [26],64000 M⁻¹ s⁻¹
same,kd 2 (no unit),Recombinant human TGF-β1 [27],0.15 no unit
same,kon,Recombinant human TGF-β1 [28],50000 M⁻¹ s⁻¹
same,Kd,Recombinant human TGF-β1 [29],48 nM
same,Kd,Recombinant human TGF-β1 [30],86 nM
same,binding result,[31],no binding (tested: 200 nM)
same,Kd,Recombinant human TGF-β1 [32],670 nM
same,Kd,Recombinant human TGF-β1 [33],49 nM
